{"source": "patent US20200181677", "key": {"[1]": {"tested_on": "peptide #14, aspartic acid-containing (phosphomimetic)"}, "[2]": {"tested_on": "peptide #11 (Optimized PKCβ Sub.), alanine-substituted, in PKCα FRET sensor"}, "[3]": {"tested_on": "peptide #14 (PKCα pseudosubstrate), alanine-containing"}}, "data": [{"substance": "human PKCα catalytic domain", "values": [{"measurement": "ATP turnover of the catalytic domain for serine-containing peptide #14 with equimolar competitor peptide", "setting": "[1]", "result": "the alanine-substituted peptide was significantly better at inhibiting catalytic activity"}, {"measurement": "kinase activity of the 10 nm peptide FRET sensor for the same substrate", "setting": "[2]", "result": "the higher affinity peptide sensor (#11) had a much lower activity than the lower affinity peptide sensor (#8)"}, {"measurement": "ATP turnover of the catalytic domain for serine-containing peptide #14 with equimolar competitor peptide", "setting": "[3]", "result": "the alanine-substituted peptide was significantly better at inhibiting catalytic activity"}, {"measurement": "basal kinase activity of the sensor (10 nm vs 30 nm ER/K linker) for the same substrate peptide", "setting": "[3]", "result": "the sensor with the 30 nm linker had significantly higher activity than the 10 nm linker for the same substrate peptide"}]}]}
